Measured values taken from article PMC7709125, “Bringing the Heavy Chain to Light: Creating a Symmetric, Bivalent IgG-Like Bispecific” (Antibodies, 2020).

Molecular target: T1, 5FV2 soluble VH domain targeting human VEGF (human)
T1 construct: also called anti-hVEGF VH domain; phage-derived VH domain 5FV2
Assay: SPR
Settings: both partners purified

T1 sequence (heavy, as listed by the source): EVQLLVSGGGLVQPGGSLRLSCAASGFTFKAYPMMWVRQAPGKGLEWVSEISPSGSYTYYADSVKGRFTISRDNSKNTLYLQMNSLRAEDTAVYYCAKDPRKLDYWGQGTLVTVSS

B1: human vascular endothelial growth factor (VEGF) (ligand, UniProt P15692 1-395, looked up)
chain: APMAEGGGQNHHEVVKFMDVYQRSYCHPIETLVDIFQEYPDEIEYIFKPSCVPLMRCGGCCNDEGLECVPTEESNITMQIMRIKPHQGQHIGEMSFLQHNKCECRPKKDRARQENPCGPCSERRKHLFVQDPQTCKCSCKNTDSRCKARQLELNERTCRCDKPRR
notes: also called hVEGF; human VEGF; source: commercially available antigen
Kd: 3 nM
kon: 730000 M⁻¹ s⁻¹
